Data as given in paper PMC9883682, “Fatty acids negatively regulate platelet function through formation of noncanonical 15‐lipoxygenase‐derived eicosanoids” (Pharmacology Research & Perspectives, 2023).

Legend:
Assay type in all cases: biochemical
[1] = target: T1, 12‐LOX (Homo sapiens, UniProt P18054); experiment: inhibition of purified recombinant 12-LOX with […] AA as substrate
T1 construct: gene ALOX12
T1 sequence (P18054 1-663): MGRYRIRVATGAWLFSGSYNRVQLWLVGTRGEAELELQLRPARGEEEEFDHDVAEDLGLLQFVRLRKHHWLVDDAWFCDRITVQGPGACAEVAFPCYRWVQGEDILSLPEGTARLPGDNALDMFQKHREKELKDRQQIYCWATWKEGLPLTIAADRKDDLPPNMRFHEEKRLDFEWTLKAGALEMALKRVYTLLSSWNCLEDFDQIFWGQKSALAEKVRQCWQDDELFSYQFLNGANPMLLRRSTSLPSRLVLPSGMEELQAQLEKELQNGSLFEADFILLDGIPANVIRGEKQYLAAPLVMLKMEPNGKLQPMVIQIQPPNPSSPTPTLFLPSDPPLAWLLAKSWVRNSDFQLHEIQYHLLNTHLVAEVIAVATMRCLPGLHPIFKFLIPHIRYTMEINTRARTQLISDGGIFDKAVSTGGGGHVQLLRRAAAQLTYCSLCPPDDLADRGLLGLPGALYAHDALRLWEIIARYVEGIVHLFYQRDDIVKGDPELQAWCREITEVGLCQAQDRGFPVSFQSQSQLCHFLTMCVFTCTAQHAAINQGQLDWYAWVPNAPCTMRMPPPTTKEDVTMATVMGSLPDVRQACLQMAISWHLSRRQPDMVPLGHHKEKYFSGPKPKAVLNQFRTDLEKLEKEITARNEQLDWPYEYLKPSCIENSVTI

[2] = substrate: CC/C=C\C[C@@H](/C=C/C=C\C/C=C\C/C=C\CCCC(=O)O)OO; experiment: steady-state UV kinetics with purified human 12-LOX (kM); LC-MS product profile; conditions: also described as a […]‐LOX allosteric regulator that affects secondary product formation
[3] = substrate: CCCCC[C@@H](/C=C/C=C\C/C=C\CCCCCCC(=O)O)OO; experiment: as above
[4] = substrate: CCCCC[C@@H](/C=C/C=C\C/C=C\C/C=C\CCCC(=O)O)OO; experiment: as above
[5] = substrate: CCCCC/C=C\C/C=C\C/C=C\CCCCCCC(=O)O; experiment: steady-state UV kinetics with purified human 12-LOX (kM)
[6] = substrate: CC/C=C\C/C=C\C/C=C\C/C=C\C/C=C\CCCC(=O)O; experiment: as above
[7] = substrate: CCCCC/C=C\C/C=C\C/C=C\C/C=C\CCCC(=O)O; experiment: as above

With `CC/C=C\C[C@H](O)/C=C/C=C\C/C=C\C/C=C\CCCC(=O)O` [15‐HEPE] the IC50 [1] was 142 ± 11 µM.

For `CCCCC[C@H](O)/C=C/C=C\C/C=C\CCCCCCC(=O)O` [15‐HETrE], the IC50 [1] was 105 ± 55 µM.

With `CCCCC[C@H](O)/C=C/C=C\C/C=C\C/C=C\CCCC(=O)O` [15‐HETE] the IC50 [1] was 46 ± 19 µM.

B1: 12‐LOX (Homo sapiens) (protein)
chain: T1 sequence (P18054 1-663)
Work on B1 yielded a Km [2] of 9.2 ± 1 µM, a kcat [2] of 0.93 ± 0.06 s⁻¹ and a kcat/Km [2] of 100000 ± 8000 M⁻¹ s⁻¹. The Km [3] was 11 ± 1 µM, the kcat [3] was 0.96 ± 0.05 s⁻¹ and the kcat/Km [3] was 86000 ± 4000 M⁻¹ s⁻¹. For the same molecule, the Km [4] was 5.8 ± 0.4 µM, the kcat [4] was 1.5 ± 0.05 s⁻¹ and the kcat/Km [4] was 260000 ± 1000 M⁻¹ s⁻¹. For the same molecule, the Km [5] was 2.5 ± 0.2 µM, the kcat [5] was 12 ± 0.3 s⁻¹ and the kcat/Km [5] was 4.9e+06 ± 300000 M⁻¹ s⁻¹. For the same molecule, the Km [6] was 1 ± 0.2 µM, the kcat [6] was 9 ± 0.5 s⁻¹ and the kcat/Km [6] was 8.7e+06 ± 1.2e+06 M⁻¹ s⁻¹. For the same molecule, the Km [7] was 0.49 ± 0.07 µM, the kcat [7] was 11 ± 0.2 s⁻¹ and the kcat/Km [7] was 2.2e+07 ± 3e+06 M⁻¹ s⁻¹.
